From patent EP0888374B1

Target: Complement System Protein C1q (UniProt P02745)
Test: cell-based or functional assay

UniProt P02745, sequence (P02745 23-245, chain 1 of 3): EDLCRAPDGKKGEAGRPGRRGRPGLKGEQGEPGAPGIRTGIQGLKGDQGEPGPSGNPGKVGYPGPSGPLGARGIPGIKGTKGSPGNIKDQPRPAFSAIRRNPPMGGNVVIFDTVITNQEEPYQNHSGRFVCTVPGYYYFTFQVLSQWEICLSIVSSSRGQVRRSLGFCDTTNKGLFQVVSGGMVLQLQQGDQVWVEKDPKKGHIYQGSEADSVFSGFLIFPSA
UniProt P02745, sequence (P02746 28-253, chain 2 of 3, further chain): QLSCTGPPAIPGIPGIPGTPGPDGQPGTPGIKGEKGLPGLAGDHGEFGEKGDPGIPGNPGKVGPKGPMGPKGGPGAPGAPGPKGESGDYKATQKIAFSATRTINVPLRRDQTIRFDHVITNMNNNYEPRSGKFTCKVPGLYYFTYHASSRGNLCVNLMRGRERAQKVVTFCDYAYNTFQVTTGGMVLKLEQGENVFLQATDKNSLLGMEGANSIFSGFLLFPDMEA
UniProt P02745, sequence (P02747 29-245, chain 3 of 3, further chain): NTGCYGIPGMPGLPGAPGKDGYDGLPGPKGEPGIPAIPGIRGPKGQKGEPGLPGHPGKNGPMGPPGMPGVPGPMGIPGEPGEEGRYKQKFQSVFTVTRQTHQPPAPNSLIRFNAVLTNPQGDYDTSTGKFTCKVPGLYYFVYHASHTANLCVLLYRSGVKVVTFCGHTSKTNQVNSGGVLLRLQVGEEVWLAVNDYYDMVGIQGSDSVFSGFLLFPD

- [4d] µg (Class.): 8 µg
Substance: BSA-anti-BSA Immune Complexes (from UniProt P02769 25-607)
